Assay results reported in paper PMC11756389.

Tests used:
[1] = molecular target: two N-terminal domains (D1D2) of LILRB2 with a C-terminal biotinylation tag, biotinylated (human); test: SPR
[2] = molecular target: T1, paired immunoglobulin-like receptor B (PIR-B), C-terminal biotinylated (mouse), P97484; test: SPR
T1 chain: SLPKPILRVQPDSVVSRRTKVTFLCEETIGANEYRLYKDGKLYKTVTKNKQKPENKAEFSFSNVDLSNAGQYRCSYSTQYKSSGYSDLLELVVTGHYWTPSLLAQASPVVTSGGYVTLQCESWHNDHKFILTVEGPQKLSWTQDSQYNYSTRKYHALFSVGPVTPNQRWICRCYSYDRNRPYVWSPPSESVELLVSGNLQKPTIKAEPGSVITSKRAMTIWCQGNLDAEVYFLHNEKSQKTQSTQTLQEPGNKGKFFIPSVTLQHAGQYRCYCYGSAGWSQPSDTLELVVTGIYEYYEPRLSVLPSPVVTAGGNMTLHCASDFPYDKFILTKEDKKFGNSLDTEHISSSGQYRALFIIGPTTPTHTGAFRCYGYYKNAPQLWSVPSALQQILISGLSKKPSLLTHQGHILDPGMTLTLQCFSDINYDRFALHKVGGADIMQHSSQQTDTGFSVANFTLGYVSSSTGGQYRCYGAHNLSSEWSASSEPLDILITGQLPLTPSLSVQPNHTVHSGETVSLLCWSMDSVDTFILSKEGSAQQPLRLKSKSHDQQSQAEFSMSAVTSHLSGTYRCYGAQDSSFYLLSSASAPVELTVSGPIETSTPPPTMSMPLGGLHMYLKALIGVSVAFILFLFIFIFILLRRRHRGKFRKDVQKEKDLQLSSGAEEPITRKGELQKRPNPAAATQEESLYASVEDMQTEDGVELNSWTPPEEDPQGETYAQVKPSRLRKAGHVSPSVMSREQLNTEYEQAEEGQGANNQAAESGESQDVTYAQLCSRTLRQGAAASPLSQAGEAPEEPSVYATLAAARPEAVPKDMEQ

B1: soluble HLA-G2 homodimer (non-PEGylated) (domain or fragment)
chain: GSHSMRYFSAAVSRPGRGEPRFIAMGYVDDTQFVRFDSDSACPRMEPRAPWVEQEGPEYWEEETRNTKAHAQTDRMNLQTLRGYYNQSEANPPKTHVTHHPVFDYEATLRCWALGFYPAEIILTWQRDGEDQTQDVELVETRPAGDGTFQKWAAVVVPSGEEQRYTCHVQHEGLPEPLMLRW
modifications: not checked
B1 showed a Kd [1] of 0.041 to 0.064 pM and a specific binding response at 6.2 μM [2] of 100 RU.
